Several values for one entry are separate records, joined by “and”; a condition that tells them apart may be missing. Identical values can stand only once.
Key:
[1] = tested on: 4T1.2-neu (murine breast cancer cells); assay: Anti-proliferative activity (Resazurin Blue, 72 hours); type: cell-based; settings: mean ± S.E.M., cisplatin basis
Protocol: MDA-1986 (human head and neck squamous cell carcinoma), 4T1.2-neu (murine breast cancer cells), and A2058 (human melanoma) cells were maintained in Dulbecco's Modified Eagle Medium (DMEM, Corning, Manassas, Va.) with 4.5 g/L glucose, 4.5 g/L L-glutamine, and 10% fetal bovine serum in a humidified incubator at 37° C. and 5% CO2. Cells were seeded into 96-well plates (3,000 cells/well in 90 μL media) and allowed to attach overnight. […] Resazurin Blue (Acros Organics, Geel, Belgium) in PBS was added to each well (5-μM final concentration; 10-μL addition) and incubated at 37° C. for 4 hours. Fluorescence (λex 550 nm, λem 605 nm) was quantified with a SpectraMax Gemini XS plate-reader (Molecular Devices, Sunnyvale, Calif.). The relative growth of cells incubated with each compound concentration was normalized to vehicle-treated controls (100% proliferation). Data from at least three separate experiments performed in duplicate was analyzed using non-linear regression (GraphPad Prism 5.0) to generate IC50 values.

[2] = Viscosity reduction by excipients (rheometer); type: physicochemical
Protocol: The viscosity of 29 kDa HA (60 mg/mL), 33HA-Lys (33 kDa HA with linker, 8 mg/mL on HA basis), and 33HA-Lys-Pt (41.7 mg/mL on HA basis) with increasing concentration of mannitol (0, 0.1, 0.5 and 1 M) were measured using a rheometer at 37° C.
(§1) The solutions were incubated in the dark for 20 hours using a CLAY ADAMS® Brand Nutator. After 20 hours, the pH of the solutions were adjusted to pH 6.0 using 1N NaOH. A Brookfield DVIII Ultra Programmable Rheometer was used to measure the viscosity of three 500-μL samples of each solution. Measurements were taken for each at three different RPMs, where the torque ranged from 10-100%. Values for viscosity were not recorded until at least 30 seconds after the motor was started, after the torque readings were stabilized.
as §1, with “to pH 5.0 or 6.0 using” for “to pH 6.0 using”

[3] = Microscopic urinalysis of a healthy dog given 1.5 mg/kg on day 1 and 2.0 mg/kg on day 70, sub-mucosa; type: in vivo
Protocol: Before each dose, the dog was examined by clinical chemistry, hematology, and urinalysis. Additional examinations of clinical chemistry and hematology were performed on days 7, 14, and 42 after the first dose. Additional tests of urinalysis were performed on days 7 and 14 after the first dose. The potential drug-induced toxicities were monitored for 56 days after the second dose. Specifically, clinical chemistry and urinalysis were performed on days 7, 14, 21, and 56, and hematology was performed on days 7, 14, and 56 after the second dose to evaluate the tolerability and toxicity of the formulation.
Microscopic urinalyses were performed at pre- and post-dose for both injections. The injections were given via the sub-mucosa in the mouth.

white blood cell DNA = assay: Pt-DNA adduct quantitation in white blood cell DNA; type: in vivo, rat; settings: cisplatin i.v. 10 mg/kg; HA-Lys-Pt s.c. 10 mg/kg cisplatin basis; 10 mg/kg
Protocol: Whole blood was centrifuged (1500×g, 5 min., 4° C., no brake). Top layer (plasma) and middle layer (white blood cells) were transferred to new tubes. Plasma was frozen (−20° C.) until analysis. […] The white blood cell pellet was washed twice with cold PBS and re-suspended in 9 mL of white blood cell buffer (10-mM Tris, pH 7.4, 2.3% NaCl, 2-mM EDTA), and 900 μL of 1.1-M NH4HCO3, 900 μL of 10% SDS, and 75 μL of 2% Proteinase K were added and incubated at 42° C. overnight. Then, 3.3 mL of 5-M NaCl was added, samples shaken vigorously, and centrifuged twice (3200×g, 5 min, 4° C.), each time discarding the pellet. DNA was pelleted with 20 mL of ice-cold 100% ethanol and centrifuged (3200×g, 5 min, 4° C.); the DNA pellet was washed twice with 75% ethanol, re-suspended in water, and quantitated. DNA was digested in 1% HNO3 (800 μL total volume) overnight at 70° C. DNA samples were diluted 1:10 in 1% HNO3 and plasma samples were diluted 1:10,000 in 1% HNO3. Diluted samples were analyzed for Pt content using ICP-MS with a calibration curve from 1-1000 ppt.

## HA-cis-[Pt(NH3)2(N^α-Acetyl-L-Lysine)] [75HA-Lys-Pt]
[1]
  IC50: 80.1 ± 12.7 µM
[2]; 12 mM CaAc2, pH 5.0
  percent reduction of viscosity: 25.1-78.0%
[2]; 12 mM CaAc2, pH 6.0
  percent reduction of viscosity: 21.4-81.0%
[2]; 12 mM NaCl, pH 5.0
  percent reduction of viscosity: 36.6-83.2%
[2]; 12 mM calcium lactate, pH 5.0
  percent reduction of viscosity: 23.0-71.8%
[2]; 12 mM calcium lactate, pH 6.0
  percent reduction of viscosity: 24.3-80.9%
[2]; 12 mM sodium acetate and trehalose 15% wt, pH 5.0, two batches
  percent reduction of viscosity: 54.1% and 84.3%
[2]; 12 mM sodium acetate, pH 5.0
  percent reduction of viscosity: 14.5-89.2%
[2]; 12 mM sodium carbonate and trehalose 15% wt, pH 5.0
  percent reduction of viscosity: 48.5-99.0%
[2]; 12 mM sodium carbonate, pH 5.0
  percent reduction of viscosity: 60.6-99.2%
[2]; 12 mM sodium citrate and trehalose 15% wt, pH 5.0
  percent reduction of viscosity: 15.6-95.4%
[2]; 12 mM sodium citrate, pH 5.0
  percent reduction of viscosity: 38.4-97.2%
[2]; CaCl2-containing PBS buffer, pH 6.0, three batches
  percent reduction of viscosity: 55.2-88.6%
[2]; Sodium Chelex 100, pH 5.0, two batches
  percent reduction of viscosity: 82.0% and 91.7%
[2]; buffer-free CaCl2, pH 5.0, three batches
  percent reduction of viscosity: 32.1-76.6%
[2]; buffer-free CaCl2, pH 6.0, three batches
  percent reduction of viscosity: 26.6-77.0%
[3]; 2 mg/kg, 7 days after
  Cast: Rare triple
  Trpl Ph Crystal: Rare
[3]; 2 mg/kg, 14 days after
  urine Red Blood Cells: 16-30
[3]; 2 mg/kg, 21 days after
  Bac-U: Few
  Trpl Ph Crystal: Rare triple
  urine Red Blood Cells: 1-5
[3]; 2 mg/kg, 56 days after
  Bac-U: Rare
  Trpl Ph Crystal: Few
  urine Red Blood Cells: TNTC
[3]; […], 7 days after
  Bac-U: Moderate
  Trpl Ph Crystal: Few
[3]; […], 14 days
  Bac-U: Few
White blood cell DNA
  Pt-DNA adduct AUC: 4730 pg Pt×h/μg DNA

Source: US20190015518A1, “DRUG DELIVERY COMPOSITIONS AND METHODS” (priority 2016, published 2019)
